Data on twelve sequences can be found in the DeepSol protein solubility set.

The data set can be described thus: soluble on expression in E. coli; label from the status in PepcDB or PDB records.
Take “MSLPCNKHPFYQQLEQQLDTTRTEGLYKNERVITSAQQANIAVADGSRVINFCANNYLGLANHPKLIAAAKAGMDSHGFGMASVRFICGTQDIHKELEHKLASFLGMEDAILYSSCFDANGGLFETLLGPEDAIISDALNHASIIDGVRLCKAKRYRYANNDMTELEAQLKQAKAEGARHIMIATDGVFSMDGVIANLKRVCDLADEYQALVMVDDSHAVGVIGANGRGTHEYCEVMDRVDIITGTLGKALGGASGGYTAGRKELVEWLRQRSRPYLFSNSLAPAIVAASIEVLSLLEEGGALRDRLWANARLFREKMSAAGFTLAGADHAIIPVMLGEAKLAQDFANALLKEGIYVTGFFFPVVPKGQARIRTQMSAGHTTEQVERAIEAFVRIGKQLNVIA”: the “soluble on expression in E. coli” value is “not soluble”.
Turning to “GHRIARKVTDVWEITGPSSEDAIEVARWNPFTKEHEHFMEKSVAIAEIGKLVGLTKDEVLAEIERRKLVLLWMAKSGIRRYREVAPIIFKYYYSPDDVYERAAKELKTELI”, the “soluble on expression in E. coli” value is reported as “not soluble”.
On to “MGSDKIHHHHHHMKIEFDVVVVGAGPSGLSCAYVLAKNGLKVAVVEKGEYPGSKNVMGGVLYVHPLKEIMPDFLEKAANSKALERNVIEQNLWLLGNEGVIKIGHRNVEWKENPNAFTVLRANFDRWFAQEVEKAGALIIPKTKVEDFLRNEKGEIAGVVTSRPKGEIHSKAVVIAEGVNPILTMKAGLRKEDLKPHMVAVAVKEVISVPEDVVNRVFGVEGNDGATIELLGSWSEGMFGMGFLYANRSSVSLGCGVLLEDLRKKKIKPYQLLENLKNHPVISDMLGEYRNNTMEYLAHLIPEGGYYAMPKVYGDRVLVCGDAAMLVNSIHREGSNHAITSGRLAAETLLEAFEKGDFSEKILKNYYLRLKESFILKDLEKYKDLMPTMEKNHQFVEIYPDLANDALKRFLQVDGTPKWDVQKQIADMVLSRRSLIGISLDLLRFWRAVR”, for which the “soluble on expression in E. coli” value is given as “not soluble”.
As to “MGSDKIHHHHHHMNIPNIRLLNQQLLNPLFREPKELVSWMGAMQAQNYSMVKWAVGMRLKSATIQTVEKALREGEILRTHVMRPTWHLVAAEDIRWMLKLSAQRIISANDSFAKGYDLDIPNELYTKAHDLLEKILCGKKSLTKQEIAEHFNRSGIVADNRRMTRFMARAEQEGIICSGEDRGSKCTYALLEERVPPMPELTKDESLARLARSYFRSHSPAVLQDFIWWSGLSVSDAKQAVYLIASELITEQWKEQTWYIHDICRTRGKLSGHIHLLPSYDEYLLGYKDRTDVLPLEHYSKAFTNNGLFFPIVLHNGQVIGNWDKSVKKKSVDLKYSWFRQVADMNEETLERERQKFTRFLEK”, the “soluble on expression in E. coli” value is given as “not soluble”.
For “MSSLHKSRIADFQDVLKEPSIALEKLRELSFSGIPCEGGLRCLCWKILLNYLPLERASWTSILAKQRELYAQFLREMIIQPGIAKANMGVSREDVTFEDHPLNPNPDSRWNTYFKDNEVLLQIDKDVRRLCPDISFFQRATDYPCLLILDPQNEFETLRKRVEQTTLKSQTVARNRSGVTNQEQNIKPQFFAFRWLTLLLSQEFLLPDVTRIWDSLFADDNRFDFLLLVCCAMLMLIREQLLEGDFTVNMRLLQDYPITDVCQILQKAKELQDSK”, the “soluble on expression in E. coli” value is on record as “soluble”.
For “MLRIAYRLLWRALLPFALLRLWWRGRKEPGYRQHVGERLGFYRPRANPDHPLLWVHAVSVGETRAAQPLIDALLARFPQHDVLLTHMTPTGRRTGAEFAAQRNGRVIQAYLPYDLAGAVDRFLRHFQPRLGLLMETEIWPVLIERAHHAGVPMVLVNGRLSERSHRRTARLGQAARETYAQLAAVLAQTPDDADRYRSLGVPRVRVTGNLKFDITPHVDQIMMGRALRDALGGRAVWVAASTREGEEPLLLDAWHAHRAQHAGRRHPLLILVPRHPQRFDEVAQLAGLKGLRVARRSALSLSAAEAPDAAGVLDADILLGDSMGEMALYYAAAQAAFIGGSLLPMGGQNLIEACAVGTPVVIGPHTFNFAQATRDAVAAGACVQVEDAACAVRVIDQWLSDADAREAASRAALAFAATHGGATARTVEAVASLVLPSLLEHHHHHH”, the “soluble on expression in E. coli” value is “not soluble”.
Turning to “MDILKQLQSSTNLTPNVLARLAIALSLLSKEPIESFDSDTNGLEFNRNTLTGEYDFVYKALIAQQLGRPITDDEYFPSLIKKHLDRGAKWLENEYKYAGNYEKLIKGLAHFELEMIR”, the “soluble on expression in E. coli” value is “not soluble”.
As to “MGSDKIHHHHHHMTFGEKLLNAASTRGRLCVGIDPHESLLTSWGLPVNVDGLAEFSRACVEAFADTVALVKPQVAFYERFGSAGFAILEETIQTLRERGCLVVSDAKRGDIGSTMAGYASAWLDPASPLSSDAVTVSPYLGFHSLDPVFELAEQHGRGVFVLAATSNPEARELQDQQNADGVSISQQIVDQAAALNAPYMAQGKAGNIGVVIGATLSKPPRLSTLGGAILMPGVGAQGGTASDVDEIAGDMAHLAFPNVSRSILATGPDIAEMKNSVAKNAADFPGFPRS”, the “soluble on expression in E. coli” value was “not soluble”.
Under “KPYQVVGEKQEILNLIDNTTLDVSFTLPVSYAESVSLSALKNAEMWVTMDSEPSKRIPGKFKEISTQPNIDTNSYEAIVTITRPTDRNLLTGMTGQVHIAKQNKSNAMTLPTSAWVNKQEKQGEVWVMDSSTQQVSKVTLSLNESGAIESGLDNNDYVVIAGVERLVEGQVVKAWIREEGI” stands “not soluble”; under “MSLRYLLGIDVGTSGTKTALFDECGNTIKTSTHEYELFQPQVGWAEQNPENWWTACVKGIREVIEKSKIDPLDIKGIGISGQMHGLVLIDKEYKVIRNSIIWCDQRTEKECTQITDTIGKEKLIRITGNPALTGFTLSKLLWVRNNEPDNYKRIYKVLLPKDYIRFKLTGVFAAEVSDASGTQMLDINTRNWSEELLDDLRIDKNILPDVYESVVVSGCVIEKASKETKLAVNTPVVGGAGDQAAGAIGNGIVREGLISTVIGTSGVVFAATDTPRFDSKGRVHTLCHAVPNKWHIMGVTQGAGLSLNWFKRTFCAKEILESKEAGINIYDLLTEKASQSKPGSNGIIYLPYLMGERTPHIDPNVKGAFLGISLINNHNDFVRSILEGVGFSLKNCLDIIENMKVNIEEIRVSGGGAESSIWRQILSDIFNYELTTVKASEGPALGVAILAGVGAGIYNSVEEACDKIVKGNEKVMPNANLIEVYSKVYEVYNSAYPKIKDEGHHHHHH”, “soluble”.
For “MSKSSYYAPHGGHPAQTELLTDRAMFTEAYAVIPKGVMRDIVTSHLPFWDNMRMWVIARPLSGFAETFSQYIVELAPNGGSDKPEQDPNAEAVLFVVEGELSLTLQGQVHAMQPGGYAFIPPGADYKVRNTTGQHTRFHWIRKHYQKVDGVPLPEAFVTNEQDIQPLVMPDTEGRWSTTRFVDMSDMRHDMHVNIVNFEPGGVIPFAETHVMEHGLYVLEGKAVYRLNQDWVEVEAGDFMWLRAFCPQACYSGGPGRFRYLLYKDVNRHMRLTLNAPHLEHHHHHH”, the “soluble on expression in E. coli” value is given as “soluble”.
Regarding “MSLSAYAELHCLSNFSFQRGASSAAELFQRAKALGYQALAITDECTLAGIVRAWQASRDTGLKLIVGSEMQVEDGPRLVLLVEDLAGYQGLCRLITRARRRAEKGSYRLLREDFAEPLPGLLALWLTGAGEPLAQGRWLQQVFPQRLWLALELHCGQDDARHLQQQLALARQLGLPAVACGDVHMHVRGRRALQDTMTAIRHHLPVAEAGQRLFANGERHLRPVEVLQGLYPQALLDESLAIAGRCAFDLGQLRYQYPRELVPEGHDAGSWLRVLTQRGIVRRWPTGARAEVLKQIDKELTLICDLGYESYFLTVHDIVDFARRQHILCQGRGSAANSVVCFALGITEIDPDRSTLLFERFLSRERNEPPDIDVDFEHERREEVLQYLFQRYGRHRAALTAVVSTYHGAGAVRDVAKALGLPPDQVNALADCCGHWSDTPPSVERLQEAGFDPQSPVLRRVLSLTGQLIGFPRHLSQHPGGFVISEQPLDHLVPVENATMAERTVIQWDKDDLDMVGLLKVDILALGMLSAIRRCFDLIHGYRGQRYSLASIPPEDPATYEMIGRADTIGVFQIESRAQMSMLPRLKPQNFYDLVIEVAIVRPGPIQGGMVHPYLRRRNRQEPETYPSPELEGVLKRTLGVPLFQEQVMQIAIVAADYTPGEADQLRRSMAAWKRHGGLEPHRERLRRGMNRNGYSDEFATQIFEQIKGFGSYGFPESHAASFALLTYASCWLKCHEPAAFACALINSWPMGFYSPDQILQDARRHGLQVLAVDVGASDWDCSLEPIPVQPARAGNGPPGQPALRLGLRMIKGFREDDARRIERARRQRAFVDIADLGERARLDVRAQELLADAGALQALAGDRYRARWEVAGVERQLGLFAEGHHHHHH”, the “soluble on expression in E. coli” value is reported as “soluble”.
